Experimental findings from US20200239586A1 (LA TROBE UNIVERSITY, published 2020) are described below.

For assay [1], the target named is T1, human Fn14 (human, UniProt Q9NP84 28-129).
T1 sequence: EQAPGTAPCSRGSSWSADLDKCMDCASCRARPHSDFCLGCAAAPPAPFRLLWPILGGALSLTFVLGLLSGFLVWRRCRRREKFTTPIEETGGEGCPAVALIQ
The experiment in a line: cell-based or functional assay.

The target in assay [2] is phage-displayed hFn14 extracellular domain mutant D45A (human, UniProt Q9NP84 28-77). The experiment in a line: phage ELISA, antibody on plate, 10-fold phage dilutions. An excerpt: (§1) ELISAs showing the reactivity of the repertoire of hFn14 phage constructs with the anti-Fn14 monoclonal antibodies CRCBT-06-001, CRCBT-06-002, CRCBT-06-003 and CRCBT-06-004. Binding was detected using HRP-conjugated anti-M13-phage polyclonal IgG and TMB substrate. Optical density at 450 nm was quantified using a Spectramax spectrophotometer. Error bars for each dilution represent the standard deviation of duplicate assays. In this figure, reference to “FN14 Ectodomain” is a reference to the extracellular domain of hFn14. Methods according to Epitope mapping using phage expressed Fn14—Method 1.
(§2) The wells of Maxisorp immunoplates (Nunc) were coated overnight at 4° C. with the target monoclonal antibodies or recombinant Tweak-Fc at a concentration of 2 μg/mL in PBS. MAb 5G8 was used as a negative control for ELISA plates coated with tested antibodies. Recombinant Fc alone was used as a negative control for ELISA plates coated with recombinant Tweak-Fc. […] 10-fold serial dilutions of phage were made using 5% skim milk/PBS solution in 2 ml-well microtiter plates and phage dilutions were added to the coated, blocked ELISA plates for 1 hr, with vigorous shaking at room temperature. Phage were subsequently removed from the wells and the ELISA plates were washed 4× with PBS/0.05% Tween 20. HRP-conjugated anti-M13-phage polyclonal IgG diluted in PBS was then added to the wells of the ELISA plates for 1 hr, with vigorous shaking at room temperature. The antibody solution was then removed from the wells and the ELISA plates were washed 5× with PBS/0.05% Tween 20. ELISAs were developed using TMB substrate and the reaction was stopped using 2 M H₂SO₄ solution. Optical density at 450 nm was quantified using a Spectramax absorbance spectrophotometer.
For orientation: In an ELISA, binding on a coated surface is turned into a signal by an enzyme label.

Assay [3] deals with phage-displayed hFn14 extracellular domain mutant K48A (human, UniProt Q9NP84 28-77). Described as above.
Excerpt: as §1, §2

The target in assay [4] is phage-displayed hFn14 extracellular domain mutant M50A (human, UniProt Q9NP84 28-77). The description is as above.
Excerpt: as §1, §2

For assay [5], the target named is phage-displayed hFn14 extracellular domain mutant D62E (human, UniProt Q9NP84 28-77). Described as above.
Excerpt: as §1, §2

For assay [6], the target named is phage expressed hFn14 mutant R58A (human, UniProt Q9NP84 28-77). The experiment in a line: phage ELISA (Method 2), antibody on plate, phage dilution 1/X on the x axis. The source says:
FIG. 26 is a graphical representation showing results of an ELISA testing the reactivity of mutant hFn14 phage construct comprising a R58A mutation with the anti-Fn14 monoclonal antibodies CRCBT-06-001, CRCBT-06-002, CRCBT-06-004 compared to ITEM-1 and ITEM-4. Binding was detected using Biotin-conjugated anti-M13-phage monoclonal antibody followed by HRP-conjugated Streptavidin and TMB substrate. Optical density at 450 nm was quantified using a Spectramax spectrophotometer. Error bars for each dilution represent the standard deviation of duplicate assays. X axis=dilution of phage. Methods according to Epitope mapping using phage expressed Fn14—Method 2
The wells of Maxisorp immunoplates (Nunc) were coated overnight at 4° C. with the target monoclonal antibodies or recombinant Tweak-Fc at a concentration of 1.5 μg/ml in PBS. mAb 5G8 was used as a negative control for ELISA plates coated with tested antibodies. […] 10-fold serial dilutions of phage were made using PBS solution and phage dilutions were added to the coated, blocked ELISA plates for 1 hour, shaking at room temperature. […]
Method A: HRP-conjugated anti-M13-phage antibody (GE Healthcare) at a 1/5000 dilution in PBS was then added to the wells of the ELISA plates for 1 hour, shaking at room temperature. […] Optical density at 450 nm was quantified using a Spectramax absorbance spectrophotometer.

Assay [7] deals with T2, His tagged hFn14 extracellular region mutant R56A (human, UniProt Q9NP84 28-77).
T2 construct: not shown: (His)6 tag
Put plainly: ELISA with purified His-tagged hFn14 R56A; x axis 'Log (c)' without unit, µg/ml by the legend.

Assay [8] concerns the target T3, synthetic peptide Sub-domain 2 Cys 4&5 ΔS (human, not fully specified; biotin on the added C-terminal lysine).
T3 construct: also called sub-domain 2 cys4&5ΔS mutant
T3 peptide: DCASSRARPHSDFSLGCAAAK
Put plainly: peptide ELISA: biotinylated synthetic peptide on neutravidin plate, antibody titrated (legend: 1-0.0001 µg/ml; axis 'Log (c)'), anti-mouse HRP, TMB, OD 450 nm.

T2 sequence (Q9NP84 28-77 R56A): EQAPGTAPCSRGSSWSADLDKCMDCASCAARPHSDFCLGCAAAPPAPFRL
phage-displayed hFn14 extracellular domain mutant D45A, sequence (Q9NP84 28-77 D45A): as the sequence (Q9NP84 28-77 R56A) above, with D18A, A29R counted along it
phage-displayed hFn14 extracellular domain mutant K48A, sequence (Q9NP84 28-77 K48A): as the sequence (Q9NP84 28-77 R56A) above, with K21A, A29R counted along it
phage-displayed hFn14 extracellular domain mutant D62E, sequence (Q9NP84 28-77 D62E): as the sequence (Q9NP84 28-77 R56A) above, with A29R, D35E counted along it
phage-displayed hFn14 extracellular domain mutant M50A, sequence (Q9NP84 28-77 M50A): as the sequence (Q9NP84 28-77 R56A) above, with M23A, A29R counted along it

B1: CRCBT-06-002 (antibody, IgG1, V domains shown)
VH: EVKLQQSGGGLVQPGGSMKLSCVASGFTFSYYWMNWVRQSPEQGLEWIAEIRLQSNDYPTHYAESVKGRFTISRDDSKNSVYLQMNNLRPEDTGIYYCACRYADYFDHWGQGTTLTVSS
VL: DTVLTQSPASLVVSLGQRATISCRASQSVSTSDYSYIHWYQQKPGQPPKFLIKYASNRDSGVPARFSGSGSGTDFTLNIHPVEEDDTAIYYCQHSWEIPPTFGAGTKLELQR
For B1, the “NFκB-GFP reporter in HEK293T cells” value in assay [1] was determined as 100 ng/mL. For the same molecule, the binding result in assay [2], in assay [3], in assay [4], in assay [5], in assay [6] and in assay [7] was “binds” throughout. Further, the binding result in assay [8] is “binds”.

B2: CRCBT-06-001 (antibody, IgG2b, V domains shown)
VH: QVQLQQSGGGLVQPGGSMKLSCIASGFTFSSYWMSWVRQSPEKGLEWVAEIRSKSDNYATHYAESVKGKFTISRDDSKSRFFLQMNNLRAEDTGIYYCSSTYADYFHYWGQGTDLTVSS
VL: DIVMTQTPASLAVSLGQRATISCRASQSVSTSTYSYMHWYQQKPGQPPKLLIKYASSLESGVPARFSGSGSGTDFTLNIHPVEEDDTATYYCQHSWEIPYTFGGGTKLEIKR
For the molecule B2, in assay [1], the “NFκB-GFP reporter in HEK293T cells” value was determined as 1000 ng/mL. Further, the binding result in assay [2], in assay [3], in assay [4], in assay [5], in assay [6] and in assay [7] was “binds” each time. Moreover, the binding result in assay [8] is “binds”.
